Experimental data from article PMC5727476.

Legend:
[1] = molecular target: recombinant Ixodes ricinus asparaginyl endopeptidase (IrAe) (Ixodes ricinus)
[2] = molecular target: Eudiplozoon nipponicum cathepsin B (EnCB) (Eudiplozoon nipponicum)
[3] = molecular target: Eudiplozoon nipponicum cathepsin L3 (EnCL3) (Eudiplozoon nipponicum)
[4] = molecular target: recombinant mouse cathepsin L (MmCL) (mouse) (UniProt P06797)
Chain of UniProt P06797 (P06797 18-334): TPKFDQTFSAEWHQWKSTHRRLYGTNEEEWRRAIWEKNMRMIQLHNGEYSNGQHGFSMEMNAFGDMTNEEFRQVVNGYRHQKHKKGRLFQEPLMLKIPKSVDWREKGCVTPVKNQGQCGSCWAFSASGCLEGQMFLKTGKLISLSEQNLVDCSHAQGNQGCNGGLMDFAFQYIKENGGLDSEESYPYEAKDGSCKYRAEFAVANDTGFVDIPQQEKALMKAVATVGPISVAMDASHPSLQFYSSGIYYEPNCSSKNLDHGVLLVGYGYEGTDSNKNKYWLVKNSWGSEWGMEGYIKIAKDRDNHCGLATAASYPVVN

Substance: recombinant Eudiplozoon nipponicum stefin (rEnStef) (natural protein)
- IC50 of inhibition of peptidase activity (continuous fluorometric assay, Z-Ala-Ala-Asn-AMC, 25 mM MES pH 6, 5 mM DTT; peptidase 10 nM) [1]: 0.371 µM
- IC50 of inhibition of peptidase activity (continuous fluorometric assay, Z-Phe-Arg-AMC, 25 mM MES pH 6, 5 mM DTT; peptidase 10 nM) [2]: 0.0137 µM
- IC50 of inhibition of peptidase activity (continuous fluorometric assay, Z-Phe-Arg-AMC, 25 mM MES pH 6, 5 mM DTT; peptidase 10 nM) [3]: 0.0467 µM
- IC50 of inhibition of peptidase activity (continuous fluorometric assay, Z-Phe-Arg-AMC, 25 mM MES pH 6, 5 mM DTT; peptidase 5 nM) [4]: 0.133 µM
